# Results published in patent US20140228299A1, “PROPHYLACTIC AND THERAPEUTIC AGENT FOR NEUROLOGICAL DISEASES USING LIPOPROTEINS AND PROPHYLACTIC AND THERAPEUTIC METHOD FOR NEUROLOGICAL DISEASES” (National University Corporation Tokyo Medical and Dental …, priority 2011, published 2014).
# How the values were obtained:
# [1] = target: T1, complex of LRP1 and NMDA receptor (Rattus norvegicus, UniProt G3V928); test: Immune precipitation of LRP1-NMDA receptor complex from RGC; type: cell-based; conditions: LP added to RGC culture, cells collected in 15 minutes; anti-NMDA receptor 2B immune precipitation
# T1 construct: endogenous in cells
# T1 sequence (G3V928 20-3944 limits assumed, one chain of several): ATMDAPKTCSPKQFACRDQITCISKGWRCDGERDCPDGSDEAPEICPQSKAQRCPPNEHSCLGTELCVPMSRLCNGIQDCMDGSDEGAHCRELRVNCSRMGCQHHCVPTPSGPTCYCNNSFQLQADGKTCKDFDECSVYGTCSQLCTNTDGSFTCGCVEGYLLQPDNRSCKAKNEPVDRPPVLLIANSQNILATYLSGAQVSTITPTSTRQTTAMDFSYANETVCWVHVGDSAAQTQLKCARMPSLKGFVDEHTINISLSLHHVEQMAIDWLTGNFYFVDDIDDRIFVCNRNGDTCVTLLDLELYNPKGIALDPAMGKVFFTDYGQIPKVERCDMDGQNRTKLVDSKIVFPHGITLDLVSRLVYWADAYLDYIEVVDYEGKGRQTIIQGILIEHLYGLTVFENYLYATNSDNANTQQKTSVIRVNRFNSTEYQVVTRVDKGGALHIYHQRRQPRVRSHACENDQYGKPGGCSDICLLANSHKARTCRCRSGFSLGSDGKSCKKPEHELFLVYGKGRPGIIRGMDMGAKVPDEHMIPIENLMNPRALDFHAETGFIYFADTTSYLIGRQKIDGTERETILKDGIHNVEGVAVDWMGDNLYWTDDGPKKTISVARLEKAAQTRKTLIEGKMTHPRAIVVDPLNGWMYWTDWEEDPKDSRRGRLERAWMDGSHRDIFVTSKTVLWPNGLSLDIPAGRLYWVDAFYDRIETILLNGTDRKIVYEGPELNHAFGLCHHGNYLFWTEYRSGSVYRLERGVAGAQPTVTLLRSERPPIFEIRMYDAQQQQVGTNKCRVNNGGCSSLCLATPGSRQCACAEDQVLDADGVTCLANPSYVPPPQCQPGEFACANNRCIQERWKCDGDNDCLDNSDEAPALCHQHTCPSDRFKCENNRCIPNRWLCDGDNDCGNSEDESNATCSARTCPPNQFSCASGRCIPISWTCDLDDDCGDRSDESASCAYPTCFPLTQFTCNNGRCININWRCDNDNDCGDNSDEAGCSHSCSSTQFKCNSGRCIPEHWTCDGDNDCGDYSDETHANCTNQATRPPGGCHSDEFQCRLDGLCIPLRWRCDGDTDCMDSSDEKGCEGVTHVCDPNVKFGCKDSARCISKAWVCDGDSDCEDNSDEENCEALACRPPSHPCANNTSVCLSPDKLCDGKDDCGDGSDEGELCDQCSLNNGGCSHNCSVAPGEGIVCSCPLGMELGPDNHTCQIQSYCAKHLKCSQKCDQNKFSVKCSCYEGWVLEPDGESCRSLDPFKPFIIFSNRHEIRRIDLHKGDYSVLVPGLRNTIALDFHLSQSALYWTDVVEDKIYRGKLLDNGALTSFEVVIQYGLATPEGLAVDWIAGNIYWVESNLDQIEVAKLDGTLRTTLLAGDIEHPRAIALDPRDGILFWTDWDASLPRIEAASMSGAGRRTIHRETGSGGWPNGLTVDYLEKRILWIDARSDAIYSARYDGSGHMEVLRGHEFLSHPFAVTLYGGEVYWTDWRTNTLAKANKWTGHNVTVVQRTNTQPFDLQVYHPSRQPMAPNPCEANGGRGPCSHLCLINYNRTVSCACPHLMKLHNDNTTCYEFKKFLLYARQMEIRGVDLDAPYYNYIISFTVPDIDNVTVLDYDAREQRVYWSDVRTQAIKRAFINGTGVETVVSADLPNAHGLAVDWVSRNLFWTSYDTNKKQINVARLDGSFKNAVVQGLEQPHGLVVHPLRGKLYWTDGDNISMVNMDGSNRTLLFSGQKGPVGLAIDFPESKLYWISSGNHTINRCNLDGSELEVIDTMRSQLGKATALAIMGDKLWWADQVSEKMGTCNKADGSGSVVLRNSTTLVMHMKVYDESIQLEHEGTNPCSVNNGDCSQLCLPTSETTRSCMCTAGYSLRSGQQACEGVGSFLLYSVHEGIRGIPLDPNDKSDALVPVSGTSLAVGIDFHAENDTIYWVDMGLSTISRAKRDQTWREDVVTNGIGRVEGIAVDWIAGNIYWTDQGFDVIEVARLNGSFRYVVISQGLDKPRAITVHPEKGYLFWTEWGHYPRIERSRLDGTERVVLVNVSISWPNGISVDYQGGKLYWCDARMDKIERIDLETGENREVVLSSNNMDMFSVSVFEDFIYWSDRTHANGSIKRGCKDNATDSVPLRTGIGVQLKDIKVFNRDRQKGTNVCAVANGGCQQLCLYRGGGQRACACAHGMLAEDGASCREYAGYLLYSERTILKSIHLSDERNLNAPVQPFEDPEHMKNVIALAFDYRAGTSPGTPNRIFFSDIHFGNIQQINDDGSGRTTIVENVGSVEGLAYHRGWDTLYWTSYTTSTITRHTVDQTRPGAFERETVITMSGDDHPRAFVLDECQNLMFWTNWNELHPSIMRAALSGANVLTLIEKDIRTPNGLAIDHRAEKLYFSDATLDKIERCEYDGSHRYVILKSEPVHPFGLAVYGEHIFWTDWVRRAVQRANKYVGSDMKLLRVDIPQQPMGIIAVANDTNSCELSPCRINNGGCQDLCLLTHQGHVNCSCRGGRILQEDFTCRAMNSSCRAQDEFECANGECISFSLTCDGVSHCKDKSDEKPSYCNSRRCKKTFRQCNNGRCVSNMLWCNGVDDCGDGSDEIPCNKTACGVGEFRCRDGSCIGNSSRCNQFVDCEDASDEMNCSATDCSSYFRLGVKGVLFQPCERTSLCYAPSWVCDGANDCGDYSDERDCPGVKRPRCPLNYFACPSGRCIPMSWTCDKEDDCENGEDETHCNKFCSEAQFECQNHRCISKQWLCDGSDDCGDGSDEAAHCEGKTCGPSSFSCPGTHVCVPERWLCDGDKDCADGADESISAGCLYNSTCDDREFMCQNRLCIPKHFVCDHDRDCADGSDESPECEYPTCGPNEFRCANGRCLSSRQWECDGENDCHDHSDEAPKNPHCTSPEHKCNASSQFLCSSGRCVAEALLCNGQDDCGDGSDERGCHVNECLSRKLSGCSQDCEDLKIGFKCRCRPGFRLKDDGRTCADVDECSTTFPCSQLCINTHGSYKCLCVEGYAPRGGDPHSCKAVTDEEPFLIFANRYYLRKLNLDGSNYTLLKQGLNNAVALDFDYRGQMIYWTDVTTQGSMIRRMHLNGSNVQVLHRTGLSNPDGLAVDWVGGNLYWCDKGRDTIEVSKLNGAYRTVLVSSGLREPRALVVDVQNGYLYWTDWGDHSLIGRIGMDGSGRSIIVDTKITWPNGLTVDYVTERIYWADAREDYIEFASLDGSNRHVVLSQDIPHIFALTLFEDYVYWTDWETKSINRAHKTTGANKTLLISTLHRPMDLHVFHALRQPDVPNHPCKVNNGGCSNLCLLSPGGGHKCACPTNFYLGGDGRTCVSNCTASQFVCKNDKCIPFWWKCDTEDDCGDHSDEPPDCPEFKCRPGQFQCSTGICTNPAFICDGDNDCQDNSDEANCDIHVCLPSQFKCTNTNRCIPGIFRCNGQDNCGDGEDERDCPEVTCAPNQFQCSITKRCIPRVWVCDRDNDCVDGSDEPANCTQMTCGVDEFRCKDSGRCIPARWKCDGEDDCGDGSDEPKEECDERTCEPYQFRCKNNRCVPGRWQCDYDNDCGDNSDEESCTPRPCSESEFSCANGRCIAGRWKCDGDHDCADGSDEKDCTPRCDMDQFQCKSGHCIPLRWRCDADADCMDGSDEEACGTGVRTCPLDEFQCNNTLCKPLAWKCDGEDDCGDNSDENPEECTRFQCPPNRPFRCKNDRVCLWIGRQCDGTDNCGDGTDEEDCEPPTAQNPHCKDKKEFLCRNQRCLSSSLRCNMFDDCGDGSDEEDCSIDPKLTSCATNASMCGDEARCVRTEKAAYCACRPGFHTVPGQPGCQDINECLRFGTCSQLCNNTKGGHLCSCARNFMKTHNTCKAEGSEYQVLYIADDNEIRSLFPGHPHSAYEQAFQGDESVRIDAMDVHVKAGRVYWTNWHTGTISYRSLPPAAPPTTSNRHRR
# Description: LP was added to a culture liquid of the retinal glia cells and the cells were collected in 15 minutes, followed by the immune precipitation as will be described below. For the immune precipitation, a rabbit anti-NMDA receptor 2B antibody was used, and the Western blotting was performed for LRP1 and NMDA receptor 2B.
# The immune precipitation was carried out in the manner as will be described below. Specifically, the co-immunoprecipitation was performed in accordance with procedures of May et al. (May et al., 2004) by using a mixed solution prepared by adding a RGC dissolved solution to a mixed solution of a complete EDTA-free protease inhibitor cocktail (Roche, Mannheim, Germany) and a PhosSTOP phosphatase inhibitor cocktail (Roche) and a mixture of 10 mM Tris-HCl (pH7.4), 150 mM NaCl, 1 mM MgCl2, 1 mM CaCl2 and 1% Triton X-100. RGC was washed once with HBSS and collected on a 96-well plate using 40 μl per well of a dissolving buffer. The dissolved solutions from wells 9-12 were combined in each group. The RGC dissolved solution was passed fifteen times through a 22-gauge needle and then centrifuged at 15,000×g for 15 minutes at 4° C. The resulting supernatant was pretreated at 4° C. for 1 hour with 40 μl of 50% equilibrated protein G-Sepharose (GE Healthcare, Buckinghamshire, UK), and the Sepharose beads were removed by centrifugation. […]
# [2] = system: glycogen synthase kinase 3β (GSK3β); test: GSK3β phosphorylation level in RGC after glutamic acid treatment (Western blotting); type: cell-based, rat; conditions: cells collected 18 hours after treatment with glutamic acid
# Description: The apoptosis-like cells were computed by the nucleus staining with Hoechst 33342. […] The retinal glia cells were collected in 18 hours after treatment with glutamic acid, followed by Western blotting in which a rabbit anti-phosphorylated GSK3β (p-GSK3β) antibody and a rabbit anti-GSK3β antibody were used.
# The immune blotting used in the above example was carried out in a manner as will be described below. Specifically, the lipoprotein obtained in each of the above examples was dissolved in 62.5 mM Tris-HCl (pH 6.8), 10% glycerol, 2% sodium dodecyl sulfate (SDS) and 5% β-mercaptoethanol (a sample buffer), and the resulting mixture was boiled for 5 minutes. The resulting protein was separated by electrophoresis using 0.1% SDS-containing polyacrylamide gel and then transferred to a polyvinylidene difluoride membrane. […]
substance,measurement,setting,value
"LP: reconstituted lipoprotein of POPC, cholesterol and recombinant human apolipoprotein E3",formation of a complex of LRP1 and NMDA receptor,[1],promotes
same,phosphorylation level of GSK3β,[2],recovery
